Results on one protein are retold here after publication doi:10.1101/2022.03.10.483757 (bioRxiv, 2022).

This data set concerns the molecule itself. Nature of the data set: crystal structure.

B1: His6-tagged SFPQ-276–535 L534I (domain or fragment, human, UniProt P23246 276-535, looked up)
chain: EGFKANLSLLRRPGEKTYTQRCRLFVGNLPADITEDEFKRLFAKYGEPGEVFINKGKGFGFIKLESRALAEIAKAELDDTPMRGRQLRVRFATHAAALSVRNLSPYVSNELLEEAFSQFGPIERAVVIVDDRGRSTGKGIVEFASKPAARKAFERCSEGVFLLTTTPRPVIVEPLEQLDDEDGLPEKLAQKNPMYQKERETPPRFAQHGTFEYEYSQRWKSLDEMEKQQREQVEKNMKDAKDKLESEMEDAYHEHQANIL
Regarding B1, the binding result is “binds”.
